The target of the assay is S. pombe Dcp2(1–243) (S. pombe) (UniProt O13828).

Consider one substance from article PMC5861098.

Chain of UniProt O13828 (O13828 1-243): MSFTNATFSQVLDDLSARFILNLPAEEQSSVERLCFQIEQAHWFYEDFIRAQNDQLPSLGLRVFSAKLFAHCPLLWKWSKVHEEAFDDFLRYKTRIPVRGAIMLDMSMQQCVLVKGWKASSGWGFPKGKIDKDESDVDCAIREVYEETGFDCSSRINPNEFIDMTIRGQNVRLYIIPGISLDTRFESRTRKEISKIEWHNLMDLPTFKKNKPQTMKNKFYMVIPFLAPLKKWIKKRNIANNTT

Turning to Sp Edc1 (155–180) peptide, the kmax of single-turnover in vitro decapping of a capped 29-mer RNA by Sp Dcp1–Dcp2(1–243) (m7 in complex with m6), with and without Edc1(155–180) peptide (50 µM) was determined as 10 fold.
